Measurements published in paper PMC4536308.

Tests used:
[1] = target: T1, AUF1 p37 C207E (UniProt Q14103-4 1-287, C207E); assay: EMSA
[2] = target: T1, AUF1 p37 C207E; assay: fluorescence anisotropy
[3] = target: AUF1 p37 (UniProt Q14103-4 1-287); assay: fluorescence anisotropy
[4] = target: AUF1 p42 (UniProt Q14103-2 1-336); assay: fluorescence anisotropy
[5] = target: HILI (hHILI) (human, UniProt Q8TC59 1-973); assay: single-molecule fluorescence
[6] = target: AGO2 (hAGO2) (human, UniProt Q9UKV8 1-859); assay: single-molecule fluorescence
Sequence of AGO2 (hAGO2) (Q9UKV8 whole entry): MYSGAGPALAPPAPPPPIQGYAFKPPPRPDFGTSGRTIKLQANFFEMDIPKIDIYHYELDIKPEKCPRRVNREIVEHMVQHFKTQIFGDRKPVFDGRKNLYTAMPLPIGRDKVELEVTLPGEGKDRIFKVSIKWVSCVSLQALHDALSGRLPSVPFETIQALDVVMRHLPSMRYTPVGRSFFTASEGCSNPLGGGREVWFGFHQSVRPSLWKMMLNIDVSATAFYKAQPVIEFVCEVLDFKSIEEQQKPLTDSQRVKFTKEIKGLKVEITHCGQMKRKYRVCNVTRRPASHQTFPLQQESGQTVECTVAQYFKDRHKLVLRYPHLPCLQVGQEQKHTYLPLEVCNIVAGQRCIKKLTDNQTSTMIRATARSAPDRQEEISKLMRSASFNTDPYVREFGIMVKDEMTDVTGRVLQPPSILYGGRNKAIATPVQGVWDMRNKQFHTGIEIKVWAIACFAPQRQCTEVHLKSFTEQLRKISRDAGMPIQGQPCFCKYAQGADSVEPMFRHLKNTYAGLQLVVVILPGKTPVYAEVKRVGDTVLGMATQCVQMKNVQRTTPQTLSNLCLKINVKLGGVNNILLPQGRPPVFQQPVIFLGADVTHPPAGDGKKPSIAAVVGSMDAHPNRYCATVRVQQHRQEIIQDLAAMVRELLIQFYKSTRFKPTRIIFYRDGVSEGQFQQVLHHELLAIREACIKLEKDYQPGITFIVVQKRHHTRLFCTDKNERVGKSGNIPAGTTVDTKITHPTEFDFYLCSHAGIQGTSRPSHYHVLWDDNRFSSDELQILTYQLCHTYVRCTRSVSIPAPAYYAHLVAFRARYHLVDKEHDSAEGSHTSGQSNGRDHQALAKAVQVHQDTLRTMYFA

Sequence of HILI (hHILI) (Q8TC59 whole entry): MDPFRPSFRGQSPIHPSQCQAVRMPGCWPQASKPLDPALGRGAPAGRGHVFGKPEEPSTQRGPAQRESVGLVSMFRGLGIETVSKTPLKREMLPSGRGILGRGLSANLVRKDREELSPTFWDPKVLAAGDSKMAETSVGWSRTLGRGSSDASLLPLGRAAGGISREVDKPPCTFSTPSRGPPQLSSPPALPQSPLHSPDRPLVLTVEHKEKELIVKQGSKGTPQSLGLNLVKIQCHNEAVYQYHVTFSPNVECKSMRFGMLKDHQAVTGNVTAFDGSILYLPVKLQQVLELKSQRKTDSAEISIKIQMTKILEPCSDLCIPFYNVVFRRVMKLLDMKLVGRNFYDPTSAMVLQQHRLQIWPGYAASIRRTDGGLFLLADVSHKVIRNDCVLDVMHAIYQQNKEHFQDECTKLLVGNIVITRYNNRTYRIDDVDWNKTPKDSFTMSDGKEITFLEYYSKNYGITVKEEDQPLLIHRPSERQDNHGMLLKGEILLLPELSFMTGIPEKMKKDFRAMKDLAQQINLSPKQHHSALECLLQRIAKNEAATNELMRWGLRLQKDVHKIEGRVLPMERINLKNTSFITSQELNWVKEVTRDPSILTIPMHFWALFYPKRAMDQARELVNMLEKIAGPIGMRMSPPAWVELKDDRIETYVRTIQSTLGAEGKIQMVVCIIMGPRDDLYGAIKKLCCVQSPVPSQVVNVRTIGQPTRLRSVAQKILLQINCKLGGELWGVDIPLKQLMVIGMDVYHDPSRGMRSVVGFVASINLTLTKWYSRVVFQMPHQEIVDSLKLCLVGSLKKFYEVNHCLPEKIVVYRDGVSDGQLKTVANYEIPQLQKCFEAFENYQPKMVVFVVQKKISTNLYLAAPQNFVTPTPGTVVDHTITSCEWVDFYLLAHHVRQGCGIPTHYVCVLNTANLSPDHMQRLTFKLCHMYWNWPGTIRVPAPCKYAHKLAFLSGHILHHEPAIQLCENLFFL

Does CCCCUGGCUCACAAAUACCUUAUUUAUUUAUUUAG (ssRNA) [canonical AU-rich element] bind [1]?
Result: no binding

Does UGAGGUAGUAGGUUGUGUGGUU (ssRNA) [let-7b (Fl)] bind [2]?
Result: no binding

And the Kd [3]?
Its Kd is 5.9 nM.

What about the Kd [4] of the same binder?
The Kd was 9.7 nM.

Does UGAGGUAGUAGGUUGUGUGGUU (ssRNA, amino-modifier C6 U at position 18 (iAmMC6)) [Cy5-let-7b (internal)] bind [5]?
Result: no binding

Does UGAGGUAGUAGGUUGUGUGGUU (ssRNA, amino-modifier C6 U at position 18 (iAmMC6)) [Cy5-let-7b (internal)] bind [6]?
Result: binds

Does UGAGGUAGUAGGUUGUGUGGUU (ssRNA) [let-7b (32P)] bind [1]?
Result: no binding

Does CUAUACAACCUACUGCCUUCCC (ssRNA) [let-7b* (32P or 3' Fl)] bind [1]?
Result: no binding
